Laboratory results taken from JP2016106147A (dated 2016).
Several values for one entry are separate records, joined by “and”; a condition that tells them apart may be missing. Equal values may be shown once. Values belong to the binder of their own block, whether it stands above or below them.

How the values were obtained:
マウスMMP9 [1] = biological target: T1, マウスMMP9 (mouse, UniProt P41245 20-730, limits assumed); assay: binding test (Table 2, not shown)
T1 construct: The immunogen for AB0046 was a pro/catalytic domain fragment of mouse MMP9; also called mouse MMP9
T1 sequence (P41245 20-730 limits assumed): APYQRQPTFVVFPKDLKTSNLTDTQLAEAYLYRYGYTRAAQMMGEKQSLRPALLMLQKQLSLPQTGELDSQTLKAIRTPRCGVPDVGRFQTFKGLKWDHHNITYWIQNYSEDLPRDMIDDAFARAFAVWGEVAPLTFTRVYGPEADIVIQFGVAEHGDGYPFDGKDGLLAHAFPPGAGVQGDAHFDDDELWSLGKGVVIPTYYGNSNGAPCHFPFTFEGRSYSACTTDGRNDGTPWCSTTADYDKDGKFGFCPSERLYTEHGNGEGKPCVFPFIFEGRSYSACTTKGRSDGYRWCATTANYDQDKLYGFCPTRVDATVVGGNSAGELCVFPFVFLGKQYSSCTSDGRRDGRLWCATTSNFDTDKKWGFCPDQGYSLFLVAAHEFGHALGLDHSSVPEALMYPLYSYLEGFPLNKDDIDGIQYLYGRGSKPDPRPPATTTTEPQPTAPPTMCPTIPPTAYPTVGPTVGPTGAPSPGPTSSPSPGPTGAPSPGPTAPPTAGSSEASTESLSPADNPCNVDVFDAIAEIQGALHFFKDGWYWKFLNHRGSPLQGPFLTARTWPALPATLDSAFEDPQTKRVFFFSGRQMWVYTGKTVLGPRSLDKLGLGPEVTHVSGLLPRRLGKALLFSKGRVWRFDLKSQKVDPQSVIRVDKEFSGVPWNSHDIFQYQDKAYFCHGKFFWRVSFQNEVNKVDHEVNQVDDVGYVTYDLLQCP

ヒトMMP9 [2] = biological target: T2, ヒトMMP9 (human, UniProt P14780 20-707, limits assumed); assay: SPR
T2 construct: also called human MMP9; ゼラチナーゼ−B
T2 sequence (P14780 20-707 Q279R/R574P limits assumed): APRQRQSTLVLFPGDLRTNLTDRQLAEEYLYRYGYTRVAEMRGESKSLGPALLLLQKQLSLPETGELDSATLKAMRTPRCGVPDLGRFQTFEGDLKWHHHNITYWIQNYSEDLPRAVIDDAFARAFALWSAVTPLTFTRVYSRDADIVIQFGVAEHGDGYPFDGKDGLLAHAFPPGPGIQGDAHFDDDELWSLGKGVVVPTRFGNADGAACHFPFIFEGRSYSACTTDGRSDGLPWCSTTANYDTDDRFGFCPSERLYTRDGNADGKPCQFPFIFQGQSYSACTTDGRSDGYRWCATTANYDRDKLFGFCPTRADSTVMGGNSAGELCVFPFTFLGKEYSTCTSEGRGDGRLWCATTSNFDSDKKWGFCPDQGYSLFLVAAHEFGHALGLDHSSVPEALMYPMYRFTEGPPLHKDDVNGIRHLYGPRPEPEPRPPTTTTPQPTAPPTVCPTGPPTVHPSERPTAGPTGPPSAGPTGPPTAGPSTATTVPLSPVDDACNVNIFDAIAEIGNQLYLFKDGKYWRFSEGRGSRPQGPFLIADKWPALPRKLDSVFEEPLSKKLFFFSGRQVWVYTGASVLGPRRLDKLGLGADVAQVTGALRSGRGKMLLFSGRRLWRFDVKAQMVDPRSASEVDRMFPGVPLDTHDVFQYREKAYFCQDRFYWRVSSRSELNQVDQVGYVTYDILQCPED

ヒトMMP9 [3] = biological target: T2, ヒトMMP9; assay: cell-based or functional assay
ラットMMP9 = biological target: T3, ラットMMP9 (rat, UniProt P50282 20-708, limits assumed); assay: ELISA
T3 construct: also called rat MMP9; 組換えラットMMP9
T3 sequence (P50282 20-708 limits assumed): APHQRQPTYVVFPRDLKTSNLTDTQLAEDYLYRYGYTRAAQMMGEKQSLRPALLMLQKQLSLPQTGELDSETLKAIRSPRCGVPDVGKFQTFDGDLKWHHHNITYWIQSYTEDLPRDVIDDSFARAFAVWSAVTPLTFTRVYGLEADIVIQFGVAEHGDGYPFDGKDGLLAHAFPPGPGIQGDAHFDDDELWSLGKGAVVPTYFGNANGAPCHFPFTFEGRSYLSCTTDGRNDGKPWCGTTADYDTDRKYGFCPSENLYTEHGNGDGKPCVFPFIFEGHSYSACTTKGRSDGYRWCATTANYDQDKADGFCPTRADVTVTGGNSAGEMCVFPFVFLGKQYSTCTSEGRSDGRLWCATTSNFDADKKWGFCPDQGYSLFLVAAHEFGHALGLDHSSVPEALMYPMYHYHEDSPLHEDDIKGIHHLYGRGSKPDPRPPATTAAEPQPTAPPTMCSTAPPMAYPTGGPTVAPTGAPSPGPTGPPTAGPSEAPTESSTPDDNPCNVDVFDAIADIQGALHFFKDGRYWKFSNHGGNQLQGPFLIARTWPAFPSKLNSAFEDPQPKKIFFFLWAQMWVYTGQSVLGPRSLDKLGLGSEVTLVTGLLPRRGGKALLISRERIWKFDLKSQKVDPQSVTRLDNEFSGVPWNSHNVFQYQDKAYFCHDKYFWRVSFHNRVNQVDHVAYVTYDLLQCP

カニクイザルMMP9 = biological target: T4, カニクイザルMMP9 (cynomolgus monkey, UniProt A0A2K5UU71 20-706); assay: ELISA
T4 construct: also called cynomolgus MMP9; 組換えカニクイザルMMP9
T4 sequence (A0A2K5UU71 entry or part of it): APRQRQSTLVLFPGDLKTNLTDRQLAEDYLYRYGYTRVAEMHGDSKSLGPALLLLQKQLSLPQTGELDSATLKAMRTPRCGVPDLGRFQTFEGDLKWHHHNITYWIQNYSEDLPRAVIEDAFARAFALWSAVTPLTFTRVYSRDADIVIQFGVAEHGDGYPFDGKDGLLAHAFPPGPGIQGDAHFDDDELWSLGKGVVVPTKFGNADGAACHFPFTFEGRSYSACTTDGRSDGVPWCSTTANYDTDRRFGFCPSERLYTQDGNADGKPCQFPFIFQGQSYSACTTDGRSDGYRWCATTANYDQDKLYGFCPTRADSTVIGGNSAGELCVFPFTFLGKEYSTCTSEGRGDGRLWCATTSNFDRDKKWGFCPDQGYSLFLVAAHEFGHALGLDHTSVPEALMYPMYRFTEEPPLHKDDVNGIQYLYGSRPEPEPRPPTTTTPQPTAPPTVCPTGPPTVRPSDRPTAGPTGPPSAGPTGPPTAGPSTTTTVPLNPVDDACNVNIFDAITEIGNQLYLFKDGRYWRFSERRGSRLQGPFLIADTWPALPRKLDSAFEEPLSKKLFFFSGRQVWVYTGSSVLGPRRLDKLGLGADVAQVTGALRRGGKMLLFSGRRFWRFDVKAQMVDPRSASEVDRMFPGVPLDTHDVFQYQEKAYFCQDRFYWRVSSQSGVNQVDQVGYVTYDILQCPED

マウスMMP9 [4] = biological target: T1, マウスMMP9; assay: cell-based or functional assay
マウスMMP9 [5] = biological target: T1, マウスMMP9; assay: ELISA
ヒトMMP9 [6] = biological target: T2, ヒトMMP9; assay: direct binding assay and SPR
ヒトMMP9 [7] = biological target: T2, ヒトMMP9; assay: ELISA

binding result (マウスMMP9 [1]): no binding
Kd (ヒトMMP9 [2]): 0.4 pM
IC50, MMP9-mediated cleavage of fluorogenic peptide substrate Mca-PLGL-Dpa-AR-NH2 (ヒトMMP9 [3]): 0.569 nM
Kd (ラットMMP9): < 0.4 nM
Kd (カニクイザルMMP9): < 0.4 nM
B1: マウスモノクローナル抗MMP9抗体(AB0041) (antibody, mouse IgG2b, V domains shown)
VH: QVQLKESGPGLVAPSQSLSITCTVSGFSLLSYGVHWVRQPPGKGLEWLGVIWTGGTTNYNSALMSRLSISKDDSKSQVFLKMNSLQTDDTAIYYCARYYYGMDYWGQGTSVTVSS
VL: DIVMTQSHKFMSTSVGDRVSITCKASQDVRNTVAWYQQKTGQSPKLLIYSSSYRNTGVPDRFTGSGSGTDFTFTISSVQAEDLAVYFCQQHYITPYTFGGGTKLEIK
notes: also called AB0041; AB0041抗体

IC50, MMP9-mediated cleavage of fluorogenic peptide substrate Mca-PLGL-Dpa-AR-NH2 (マウスMMP9 [4]): 0.352 nM
Kd (マウスMMP9 [5]): 0.218 nM
B2: マウス抗体AB0046 (antibody, V domains shown)
VH: QVQLQQPGSVLVRPGASVKLSCTASGYTFTSYWMNWVKQRPGQGLEWIGEIYPISGRTNYNEKFKVKATLTVDTSSSTAYMDLNSLTSEDSAVYYCARSRANWDDYWGQGTTLTVSS
VL: DIQMTQTTSSLSASLGDRVTISCSASQGISNYLNWYQQKPDGTFKLLIYYTSILHSGVPSRFSGSGSGTDYSLTISNLEPEDIATYYCQQYGWLPRTFGGGTKLEIKR
notes: Mouse IgG1/kappa anti-mouse MMP9 antibody; also called AB0046; AB0046抗体

Kd (ヒトMMP9 [2]): 8.8 pM
Kd (ヒトMMP9 [6]): ~1 pM
IC50, MMP9-mediated cleavage of fluorogenic peptide substrate Mca-PLGL-Dpa-AR-NH2 (ヒトMMP9 [3]): 0.691 nM
Kd (ラットMMP9): < 0.4 nM
Kd (カニクイザルMMP9): < 0.4 nM
Kd (ヒトMMP9 [7]): < 0.4 nM and 0.168 nM
B3: ヒト化変異体抗MMP9抗体AB0045(ヒト化、改変IgG4(S241P)) (antibody, V domains shown)
VH: QVQLQESGPGLVKPSETLSLTCTVSGFSLLSYGVHWVRQPPGKGLEWLGVIWTGGTTNYNSALMSRFTISKDDSKNTVYLKMNSLKTEDTAIYYCARYYYGMDYWGQGTLVTVSS
VL: DIQMTQSPSSLSASVGDRVTITCKASQDVRNTVAWYQQKPGKAPKLLIYSSSYRNTGVPDRFSGSGSGTDFTLTISSLQAEDVAVYYCQQHYITPYTFGGGTKVEIKR
notes: also called AB0045; AB0045抗体
